Measurements as given in US20210269542A1 (POTENZA THERAPEUTICS, published 2021).
Substitutions are numbered along the chain they refer to.

Legend:
Assay in all cases: BLI (Octet): GITR-Fc mutant on anti-human Fc sensor, ABP1 Fab in solution
[1] = molecular target: T1, human GITR-Fc mutant C67A (human, UniProt Q9Y5U5 26-162)
T1 chain: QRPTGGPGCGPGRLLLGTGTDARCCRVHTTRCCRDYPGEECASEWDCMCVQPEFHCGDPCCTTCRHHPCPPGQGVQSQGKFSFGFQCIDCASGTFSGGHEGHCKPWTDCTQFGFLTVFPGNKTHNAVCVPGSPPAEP
Experimental: (§1) Binding was assessed by Bio-Layer Interferometry (BLI) using the Octet platform.

[2] = molecular target: T2, human GITR-Fc mutant C58A (human, UniProt Q9Y5U5 26-162)
T2 construct: Point mutation in the human GITR extracellular domain with an Fc tag
T2 chain: T1 chain with C33A, A42C
Experimental: as §1

[3] = molecular target: T3, human GITR-Fc mutant Y61A (human, UniProt Q9Y5U5 26-162)
T3 chain: T1 chain with Y36A, A42C
Experimental: as §1

[4] = molecular target: T4, human GITR-Fc mutant E64A (human, UniProt Q9Y5U5 26-162)
T4 chain: T1 chain with E39A, A42C
Experimental: as §1

[5] = molecular target: T5, human GITR-Fc mutant D60A (human, UniProt Q9Y5U5 26-162)
T5 chain: T1 chain with D35A, A42C
Experimental: as §1

[6] = molecular target: T6, human GITR-Fc mutant C66D (human, UniProt Q9Y5U5 26-162)
T6 chain: T1 chain with C41D, A42C
Experimental: as §1

[7] = molecular target: T7, human GITR-Fc mutant R59A (human, UniProt Q9Y5U5 26-162)
T7 chain: T1 chain with R34A, A42C
Experimental: as §1

[8] = molecular target: T8, human GITR-Fc mutant E65A (human, UniProt Q9Y5U5 26-162)
T8 chain: T1 chain with E40A, A42C
Experimental: as §1

[9] = molecular target: T9, human GITR-Fc mutant R56A (human, UniProt Q9Y5U5 26-162)
T9 chain: T1 chain with R31A, A42C
Experimental: as §1

[10] = molecular target: T10, human GITR-Fc mutant P62A (human, UniProt Q9Y5U5 26-162)
T10 chain: T1 chain with P37A, A42C
Experimental: as §1

Measured: binding result

B1: ABP1 Fab (Fab, V domains shown)
VH: QVQLQESGPGLVKPSETLSLTCAVSGYSISSGLGWGWIRQPPGKGLEWIGGIYESGSTYYNPSLKSRVTISVDTSKNQFSLKLSSVTAADTAVYYCAHERVRGYGDYGGHHAFDIWGQGTMVTVSS
VL: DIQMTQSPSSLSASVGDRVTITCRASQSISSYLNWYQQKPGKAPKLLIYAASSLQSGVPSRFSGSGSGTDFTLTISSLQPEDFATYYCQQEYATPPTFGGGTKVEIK
binds: [5] | [8] | [9] | [10]
no binding: [1] | [2] | [3] | [4] | [6] | [7]
